# Tested on: MM1s (multiple myeloma) cell genome
# Assay: ctDNA coculture with MM1s cells, whole genome sequencing: genomic insertion sites, transposons at insertion points and SNVs (multiple myeloma)
# Type: cell-based, human
# Conditions: multiple myeloma; for Gene: gene at identified genomic insertion site; for Location / Chr position: identified genomic insertion site; for Location: chromosome; for No. SNP: number of single nucleotide variants (SNVs or SNPs) identified
# Procedure: The integration of ctDNAs into the host cell genome was evaluated. ctDNA was extracted from patient plasma, cultured for 24 hours with cells of a matching cancer cell type or non-matching cancer cell type, and whole genome sequencing was performed. The cell lines used were MM1s (multiple myeloma, MM) and MIA (pancreatic cancer, PC).
# Single nucleotide variants (SNVs) unique to the ctDNA that were found in the host cell genome under matching coculture conditions were identified.
# The sequence data was used to reconstruct genomic contigs for each experimental condition by de novo assembly. […] Coculture contigs carrying a ctDNA insertion were identified using NucDiff analysis. BLAST alignment analysis further validated the gain of ctDNA fragments in coculture conditions and identified the transition points of ctDNA insertion (FIGS. 3A-3C). […] The remaining 20% inserted into a chromosomal location distinct from their site of origin.
# Experiments were designed to identify the presence of transposons in ctDNA fragments. To map ctDNA genomic junctions more precisely, a PACBIO probe was ligated to multiple myeloma and pancreatic cancer ctDNA samples to label their 5′ and 3′ ends. Whole-genome sequencing of DNA from cells with ctDNA genomic integration was done using the Illumina platform. De novo assembly was performed on the sequencing output. ctDNA contigs containing PACBIO adaptor were then matched to those contigs containing inserted ctDNA sequences identified in the coculture experiments. Transposable element on ctDNA sequences at the insertion points (<100 nucleotides from transition point between cell and ctDNA) were detected and classified using RepeatMaster.
# A search was conducted for transposons that preferentially target cells of matching tumor types. The lists of transposons identified at the ctDNA insertion point in matching and mismatched coculture conditions were compared (e.g., MM ctDNA with MM cells or PC cells). Transposons were selected that were uniquely or preferentially inserted in the matching conditions.
# In multiple myeloma, AluSp, MER11, MER11C, AluJb, and L2a, among other subfamilies of retrotransposons were identified at the MM ctDNA insertion sites (FIG. 5B and TABLE 7).
# Whole-genome sequencing and Whole exon sequencing: ctDNA was extracted from 10 MM and 10 PC patients. DNA from CD138 (+) cells and from cell lines used in in vitro experiments (MM1s and MIA) was extracted using Blood & Cell Culture DNA Mini Kit (Quiagen, MD). DNA from […] paraffin embedded pancreatic tumors was obtained using QIAamp DNA FFPE Tissue Kit Print (Qiagen, MD).
# After extraction, ctDNA was ligated to the PACBIO adaptor ([…]) using the ABM DNA Library Prep Kit for Illumina Sequencing (Applied Biological Materials Inc. Canada). PACBio-labeled ctDNA and regular ctDNA were subjected to standard methods for library preparation and sequencing using Illumina and Agilent protocols, respectively. Applied Biological Materials Inc. prepared the libraries and performed whole-exon and -genome sequencing. The average target coverage was 50×.
# Identification of transposable elements and its nucleotide variants: To determine the locations of transposable-like regions in contigs, sequences were analyzed and transposable elements (TEs) were identified and classified using RepeatMasker version 4.1.0 and the Dfam database (release 3.1) of repetitive DNA families was used as a reference for identifying repeats in ctDNA contig sequences that were part of qualifying structural events. For each repeat sequence identified by RepeatMasker, the overall frequency of the specific repeat (e.g., for AluSp or L1) and their parent class (e.g., SINE) was computed.
# Once the TE elements were identified, hit repeats/TE sequences, unique contigs for all samples, and insertion sequence were aligned with MAFFT software version. […]
Molecule,Gene,Location,Chr position,No. SNP
"21 (nucleic acid, listed as Homo sapiens) CAGCGCAAGTAATATATCCTGGAATTGGAAGCAGAATGGGAACTATGGACTCAGTGAAGATTGTTCTGGACATTATTTGATTCTTCTTTCTCGCTGCCAATTGGATACTTTTTTTTTTTTTTTGAGACAGAGTCT",TBL1XR1,Chr3,176878250,1
"23 (nucleic acid, listed as Homo sapiens) TTCATCTTACAGAGATAAACATTTATCTTGATTCAGCAGTTTGGAAACACTGTTTTTATCCATTCTGTGAATGGACATTTGGGAGTTCATTAAGGCACACATGAAAAGGTGTATATCCCAGGGTAAAAACTAGAAGGAAGCTATCTGAGAAACCACTCTGTGGTGTGTGCATTGATCTCGCTGATTTAAAGCTTTCTTTTGATTCAGCAGTTTGGAATCACTGTTTGTGCTCATTCTGTAAATGGATATTTGGGAGCTCATTGAGGTCAATGGCAAAAAAGTGAATAACTGAGGATAAAAACTAGAAATAAGCTATCTGAGAAACGGATTTATGATGTGTGCATTCATCTCGCAAAATTAAACATTTCTTTTCCTTCAACAGTTTGGAAACACGGTTTTTATAGGATCTGCAAAGGGATATTTTGGAGCACATTGAGGTCTATGGTGTAAAAGAAAATATCTTCAGATAAAACCTAGAAAGAAGCTTTCTGAGAAATTGCATTTTGATGTGTGCATTCATCTCACAGAGTTAATACTTTTTTTTGATTCACCAGTGTGGATACACTGTTTTTGTCCATTCTGCTAATGGACCTTTGGGGGCTCATTTAGGCCAATGGCAAAAAAGTGAATATCCCAGGATAAAAACTAGAAGGAAGGTATCTGAGAAACTGCTATGTGATGTGTGCCATCATCTCACAGTCTTAAAAGTTTCTTTTCATTCACCAGTTTGGAAACAGTGTTTTTGTAGAATCTGCAAAGTCATATTTTTGAGT",–,Chr16,32534349,9
"13 (nucleic acid, listed as Homo sapiens) TATCGAAAATTCACCCCCGATATTCACGTAGGTTCTTTTCTATTTTCCCTAAGCGTCGGCAGGTTTGAGAAATAAAGGGACAGAGTACAAAAGAGAGAAATTTTAAAGCTGGGCGTCCGGGGGAGACATCACATGTTGGTAGGTTCCATGATGCCCCACAAGCCGTAAAAACCAGCAAGTTTTTATTAGTGATTTTCAAAAGGGGAGGGAGTGTACGAATAGGTGTGGGTCACAGAGATCACGTGCTTCACAAGGTAATAGAATATCACAAGGCAAATGGAGGCAGGGCGAGATCACAGGACCACAGGACCGGGGTGAAATTAAAATTGCTAATGAAGTTTTGGGCACCATTGTCATTGATAACATCTTATCAGGAGACAGGGTTTGAGAGACAACCGGTCTGACCAAAATTTATTAGGTGGGAATTTCCTCGTCCTAATAAGCCTGGGAGTGCTATGGGAGACTGGGGCTTATTTCATCCCGTAGAGGCAACCATAAAAGACAGGCCCAAGCGGCCATTTAGAGCCTCCCAGGACATTCTCTTTCTCAGGGTGTTCCTTGCTGAGAAAAAGAATTCAGATATTTCTCCATTTGCTTTTGAAAGAAGAGAAATATGGCTCTGTTCCCGGCTCACGGCGCAGATTTAAGGTTATCTCCTTTTCCCTGAACAATTGCTGTTATCCTGTTCTTTTTTCAAGGTGCCCAGATTTCATATTGTTCAAACACACATGCTTACAATTTGTGCAGTTAAGCAATATCACAGGGTCCTGAGGGACATACATCCTCCTCAGCTGACAGGATTAAGAGATTAAAGTAAAGACAGGCATAGGAAATCACAAGGGTATTGATTGGGGAAGTGATAAGTGTCCATGAAATCTTCACAATTTATGTTTAGAGATTGCAGTAAAGACAGGCATAAGAAATTATAAAAGTATTAATTTGGGGAACTAATAAATGTCCATGAAATCTTCACAATCCACGTTCTTCTGCCATGGCTTCAGCCGGTCCCTCCGTTCGGGGTCCCTGACTTCCCGCAACA",none,Chr14/ and Chr3,–,4
"22 (nucleic acid, listed as Homo sapiens) CAGCGCAAGTAATATATCCTGGAATTGGAAGCAGAATGGGAACTATGGACTCAGTGAAGATTGTTCTGGACATTATTTGATTCTTCTTTCTCGCTGCCAATTGGATACTTTTTTTTTTTTTTGAGACAGAGTCT",TBL1XR1,Chr3,176878250,1
"24 (nucleic acid, listed as Homo sapiens) GATGAATGCACATATCACAAAAAGTTTCTCAGATTGCTTCTGTCTAGATTTTATGTGAAGTTATTTCCTTTTCTACCATAGAACCCAAAGCACTTATAATGTCCCCTTGCAGATTCTACAAAAAGAATGTTTCAAAACTGCTCAATCAAAAGAAAGGTTCAAATTTGTGAGATGAATGCTCGCATCACCAAGAAGTTTCTCAAAATACTTCTGTCTAGTTTTTATGTGAAGACATTTCTTTTTCCGTGATAGGTCTCAAAATGATCAAAATTTCCACTTGCAAATTCTACAAAAAGAGAGTTTCAAAGCTGCTCAATCAAAAGAAAGGTTTATATCTGTGAGATGAACACACACTTCACAAAGCAGTTTCTAAGATTTCTTCTGCCTAGATTTTATGTAATGATATTTCCTTTTCTACCATACTTTGCAAACTGCTCCAAATGTCCACCTGTAGATTCTACAAAAACAGTGTTTCCAAACTGCTCAATCAAAAGAAAGGTTAACTCTGTGAGATGAACTCACACATCACAAAGAAGTTTCTCAGAATTCTTCTGTCTAGTTCTAATGTGAAGATATTTCCTTTTGGACCAGAGGCCCCAAGGCTATCGAAATGTCCCCTTGTAGATTCTACAAAAAGAGTATTTCAAAACTGGTCCATCAAGAGAAAGGCTCAACTCTGGGAGATGAATGCACACATCACAAAGAAGTTTCTCAGAATGCTTCTATCTAGTTTTTACATGAAGCTATTTCCTTTTCCACCATAAGCCTCAAAGCGCTCCAAATGTCCACTTGCAGGTTCTGCAAAAAGAGAGTTTCCAAAGTTCTCAATCAAAAGAAACGGTTAACTCTGTGAGATAAATGCACACATCACAAAGAAGTTTCTCAGAATTTTTCTGTCTAGTTTTTGTGTGAAGATATTTCATTTTC",AK311573,Chr21,10749086,49
"20 (nucleic acid, listed as Homo sapiens) TTCTTCTCACGGAGTGAAACTTTTCCTTTGATTGAGCAGTTTCGAAACTCTCTTTTTGTAAAATCTGCAAGTGAACATTTGGAGTGCTTTGTGGCCTATGATAGAAAAGGAAATATTTTCACTTAAAATCTAGACAGAAGCAATCTGAGAAACTTCTTTGTGATGTTTGTATTCATCTTACATAGTTAAACCTTTCTTTTGATTGAGCAGTTTTGAAACTCTCTTTTTGTCGAATCTGTAAGAGGACATTTGGAGTGCTTTCAGGCCTATGGTGAAAAAGGAAGTATCTTCTCATGAAAACTAGACAGAAGAATTCAGACAAACTTCTTTGTGATGTGTGCATTTATCTCACAGACTTGAACCTTTCTTTTGATTGAGCAGTTTGAAACACTCTTTTTGTAGAATCTGCAAGTGGACATTTGGAGCACGTGGAGGCCTATAGTGGAAATGGAAATGTCTTCACACTAAAAACTAGACAGAAGAATTCTGAGAAACTTCTTTGTGATCTTTGCATTCATCTCACAGAGTTGAACCTTTCTTTTCATTGAGCAGTTTGAAAACACTCTTTTTGTAGAATCGGCAAGTGGACATTTGGAACGCATTGCAGACTATGATGGAAAAGGAAATATCTCCA",AK311573,Chr21,10752909,24

# — patent US20250241939A1, “NUCLEIC ACID-BASED DELIVERY SYSTEMS AND USES THEREOF” (Kodikaz Therapeutic Solutions, Inc., priority 2022, published 2025)
